Literature values as cited in publication PMC5371392.

Target: KaiC (Synechococcus elongatus) (UniProt Q79PF4)
Chain of UniProt Q79PF4 (Q79PF4 whole entry): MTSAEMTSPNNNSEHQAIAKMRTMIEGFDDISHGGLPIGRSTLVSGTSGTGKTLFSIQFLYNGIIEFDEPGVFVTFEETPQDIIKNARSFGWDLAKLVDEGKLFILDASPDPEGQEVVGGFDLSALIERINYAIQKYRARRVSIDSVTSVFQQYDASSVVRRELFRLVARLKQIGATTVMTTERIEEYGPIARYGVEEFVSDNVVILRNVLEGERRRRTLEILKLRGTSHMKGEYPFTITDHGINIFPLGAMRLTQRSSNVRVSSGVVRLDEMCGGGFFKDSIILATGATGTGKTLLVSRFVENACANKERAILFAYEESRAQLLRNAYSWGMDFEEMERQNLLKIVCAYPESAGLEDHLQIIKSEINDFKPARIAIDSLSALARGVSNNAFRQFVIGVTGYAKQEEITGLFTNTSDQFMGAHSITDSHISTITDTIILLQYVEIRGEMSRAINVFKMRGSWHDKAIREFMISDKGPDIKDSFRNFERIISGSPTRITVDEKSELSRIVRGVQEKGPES

KaiA (from UniProt Q79PF6)
Kd: 1 nM
